Experimental data from US20220242973A1 (Molecular Partners, published 2022).
Positions count from the first letter of the chain named. Like-named read-outs stand apart in the source and are kept apart here. Each block holds one binder with its values, some of them ahead of it.

Legend:
[1] = molecular target: T1, Histidine-tagged cynomolgus FAP (cynomolgus monkey (Macaca fascicularis), UniProt Q12884 30-760 (human entry)); test: SPR (ProteOn), cynomolgus FAP immobilized on GLC chip
T1 construct: the tie between the two is by these matching words only; also called cFAP; cyno FAP
T1 sequence: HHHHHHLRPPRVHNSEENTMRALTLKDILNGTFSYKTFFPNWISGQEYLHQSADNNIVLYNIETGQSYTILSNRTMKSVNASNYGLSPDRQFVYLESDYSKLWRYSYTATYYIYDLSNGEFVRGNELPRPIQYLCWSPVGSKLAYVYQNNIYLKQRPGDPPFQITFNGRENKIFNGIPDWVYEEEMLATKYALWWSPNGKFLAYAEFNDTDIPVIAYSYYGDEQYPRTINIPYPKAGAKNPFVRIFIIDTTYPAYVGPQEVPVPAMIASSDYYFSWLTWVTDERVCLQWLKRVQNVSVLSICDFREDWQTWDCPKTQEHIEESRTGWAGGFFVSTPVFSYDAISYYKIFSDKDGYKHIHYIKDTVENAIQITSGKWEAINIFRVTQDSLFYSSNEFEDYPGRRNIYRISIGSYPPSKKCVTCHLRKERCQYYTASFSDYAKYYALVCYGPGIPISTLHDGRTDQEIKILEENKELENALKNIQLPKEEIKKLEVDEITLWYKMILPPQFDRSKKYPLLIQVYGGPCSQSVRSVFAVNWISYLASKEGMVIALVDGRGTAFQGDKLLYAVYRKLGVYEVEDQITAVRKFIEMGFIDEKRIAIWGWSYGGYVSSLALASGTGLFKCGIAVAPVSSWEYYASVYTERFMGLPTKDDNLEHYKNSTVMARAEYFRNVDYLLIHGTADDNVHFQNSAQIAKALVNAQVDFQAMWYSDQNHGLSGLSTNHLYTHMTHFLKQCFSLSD
Protocol: (§1) Briefly, cyno FAP was diluted in 10 mM Na-acetate pH5.3 buffer and covalently immobilized on a GLC chip (BioRad) to a level of around 2000 resonance units (RU). The interaction of ankyrin repeat protein and cFAP was then measured by injecting 200 μl running buffer (PBS, pH 7.4 containing 0.005% Tween 20®) containing serial dilutions of ankyrin repeat proteins covering a concentration range between 25 nM and 0.3 nM (on-rate measurement), followed by a running buffer flow for at least 25 minutes at a constant flow rate of 100 μl/min (off-rate measurement). The regeneration was performed using 15 μl of 10 mM Glycine pH 2 followed by 15 μl of 124 mM H₃PO₄. The signals (i.e. resonance unit (RU) values) of the interspots and a reference injection (i.e. injection of running buffer only) were subtracted from the RU traces obtained after injection of ankyrin repeat protein (double-referencing). Based on the SPR traces obtained from the on-rate and off-rate measurements, the on- and off-rate of the corresponding ankyrin repeat protein—FAP interaction was determined.
(§2) Dissociation constants (KD) were calculated from the estimated on- and off-rates using standard procedures known to the person skilled in the art. […] Table 4 provides the KD values on cFAP and hFAP of some of the selected ankyrin repeat proteins as examples.

[2] = molecular target: T2, Recombinant human FAP (fibroblast activation protein) (human, UniProt Q12884 26-760); test: SPR (ProteOn), human FAP immobilized on GLC chip
T2 construct: Bought soluble recombinant protein; Chemically biotinylated for the HTRF screen; also called hFAP; biotinylated human FAP
T2 sequence (looked up): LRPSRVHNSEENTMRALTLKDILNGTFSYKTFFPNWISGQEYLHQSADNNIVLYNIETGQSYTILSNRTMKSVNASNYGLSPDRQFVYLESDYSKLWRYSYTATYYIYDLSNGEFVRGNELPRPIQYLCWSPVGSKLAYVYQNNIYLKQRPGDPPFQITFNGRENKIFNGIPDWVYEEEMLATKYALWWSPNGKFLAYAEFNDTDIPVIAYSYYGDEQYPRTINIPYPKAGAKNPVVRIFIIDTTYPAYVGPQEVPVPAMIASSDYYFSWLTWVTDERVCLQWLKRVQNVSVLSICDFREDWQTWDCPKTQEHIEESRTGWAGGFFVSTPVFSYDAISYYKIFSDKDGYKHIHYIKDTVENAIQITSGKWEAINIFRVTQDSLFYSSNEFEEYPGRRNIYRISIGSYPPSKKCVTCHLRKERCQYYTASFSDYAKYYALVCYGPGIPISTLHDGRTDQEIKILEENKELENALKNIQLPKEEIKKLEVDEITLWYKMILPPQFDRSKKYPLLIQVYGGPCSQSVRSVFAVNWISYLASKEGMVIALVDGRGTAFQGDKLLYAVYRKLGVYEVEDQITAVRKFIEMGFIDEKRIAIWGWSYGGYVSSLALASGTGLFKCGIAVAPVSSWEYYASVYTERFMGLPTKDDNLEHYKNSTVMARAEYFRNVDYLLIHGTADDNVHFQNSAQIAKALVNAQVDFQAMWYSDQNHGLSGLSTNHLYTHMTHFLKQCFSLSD
Procedure, shortened: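 Human FAP amine-coupled (pH 5.3 acetate) to about 2000 RU. Ankyrin repeat proteins injected at 0.5–30 nM in PBS pH 7.4 with 0.005% Tween 20 at 100 μl/min, then ≥25 min dissociation, with double referencing. KD calculated from the fitted on- and off-rates.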

[3] = molecular target: T2, Recombinant human FAP (fibroblast …); test: SPR (ProteOn), human FAP immobilized on GLC chip; remark: listed apart in the source
Protocol: as §1, with “Briefly, human” for “Briefly, cyno”, “Na-acetate pH 5.3” for “Na-acetate pH5.3”, “and hFAP” for “and cFAP”, “between 30” for “between 25”, “and 0.5” for “and 0.3”
as §2

Kd [1]: 0.047 nM | Kd [2]: 0.058 nM | Kd [3]: 0.058 nM
B1: DARPin® protein #38 (designed binder)
chain: MRGSHHHHHHGSDLGKKLLEAARAGQDDEVRELLKAGADVNAKDEVGRTPLHLAAQIGHLEIVEVLLKAGADVNAKNRWGVTPLHVAAWVGHLEIVEVLLKAGADVNAKDQQGATPLHLAAIRGHLEIVEVLLKAGADVNAQDKSGKTPADLAADAGHEDIAEVLQKLN

Kd [1]: 0.155 nM | Kd [2]: 0.22 nM | Kd [3]: 0.22 nM
B2: DARPin® protein #39 (designed binder)
chain: MRGSHHHHHHGSDLGKKLLEAARAGQDDEVRELLKAGADVNAKDEWGKTPLHLAAIRGHLEIVEVLLKAGADVNAKDTHGITPLHLAAFVGHLEIVEVLLKAGADVNAKDYLGRTPLHIAAAKGHLEIVEVLLKAGADVNAQDKSGKTPADLAADAGHEDIVEVLQKLN

Kd [1]: 0.15 nM | Kd [2]: 0.21 nM | Kd [3]: 0.21 nM
B3: DARPin® protein #35 (designed binder)
chain: MRGSHHHHHHGSDLGEKLLVAALYGQDDEVRELLKAGADVNAKDQWGLTPLHKAALQGHLEIVEVLLKAGADVNAKDERGHTPLHWAARFGHLEIVEVLLKAGADVNAQDQKGYTPADLAALWGHEDIAEVLQKAA

Kd [1]: 0.112 nM | Kd [2]: 0.14 nM | Kd [3]: 0.14 nM
B4: DARPin® protein #37 (designed binder)
chain: B3 chain with E32I, K35A, A135L, A136N

Kd [1]: 0.071 nM | Kd [2]: 0.177 nM | Kd [3]: 0.177 nM
B5: DARPin® protein #34 (designed binder)
chain: MRGSHHHHHHGSDLGKKLLEAARAGQDDEVRELLKAGADVNAKDVLGWTPLHLAAFEGHLEIVEVLLKAGADVNAKDKKGWTPLQLAARTGHLEIVEVLLKAGADVNAKDHIGATPLHLAAWQGHPEIVEVLLKAGADVNAQDKSGKTPADLAADAGHEDIAEVLQKAA

Kd [1]: 0.101 nM | Kd [2]: 0.118 nM | Kd [3]: 0.118 nM
B6: DARPin® protein #36 (designed binder)
chain: B5 chain with E32I, K35A, A168L, A169N
